Measured values reported in article PMC2744858.

Key:
14-3-3σ = 14-3-3σ (UniProt P31947); experiment: GST pull-down, 14-3-3σ-His6 western blot; conditions: reference: wild-type GST-PACS-2MR; sites S437
14-3-3ζ = 14-3-3ζ (UniProt P63104); experiment: PACS-2 co-immunoprecipitation, 14-3-3ζ-myc western blot; conditions: reference: wild-type HA-PACS-2; sites S437

Substance | binding against the reference (14-3-3σ) | binding against the reference (14-3-3ζ)
PACS-2 middle region (MR) (from UniProt Q86VP3) S437A | lost | 
PACS-2 (from UniProt Q86VP3) PACS-2 S437A |  | lost
